Results from the nanobody polyreactivity screen of Harvey et al. (2022).

experiment: yeast display, Sf9 membrane polyspecificity reagent, FACS + sequencing; frameworks hold sequencing errors
Method in brief: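 Galactose-induced (36–48 hours) yeast carrying a synthetic nanobody display library were exposed to 10% biotinylated, detergent-solubilized Sf9 membrane reagent at 4 °C for 1 hour. FACS followed streptavidin microbead enrichment, using low and high (top ~1%) gates for expression (anti-HA) and reagent binding (streptavidin). Colony PCR, MiSeq 2 × 250 sequencing and CDR-length filtering followed. Labels for polyreactivity reflect the gate of origin.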

Row | Sequence | polyreactivity (PSR sort gate)
1 | QVQLVESGGGLVQAGGSLRLSCAASGFTFGYYAMGWYRQAPGKERELVAAITWSGGRTYYADSVKGRFTISRDNAKNTVYLQMNSLKPEDTAVYYCAVETLWQGSEYWGQGTQVTVSS | low polyreactivity
2 | QVQLVESGGGLVQAGGSLRLSCAASGFTFGYYAMGWYRQAPGKERELVATISYGGGSTYYADSVKGRFTISRDNAKNTVYLQMNSLKPEDSAVYYCAASYLVQAPVSGYVYRMYYWGQGTQVTVSS | high polyreactivity
3 | QVQLVESGGGLVQAGGSLRLSCAASGFTFGYYGMGWYRQAPGKERELVAAISWSGGSTYYADSVKGRFTISRDNAKNTVYLQMNSLKPEDTAVDYCNADYAGFYQRRYIEDDYWGQGTQVTVSS | low polyreactivity
4 | QVQLVESGGGLVQAGGSLRLSCAASGFTFGYYVMGWYRQAPGKERELVAAITSGGSTYYADSVKGRFTISRDNAKNTVYLQMNSLKREDTAVYYCNKYGVVLPGFDYWGQGTQVTVSS | high polyreactivity
5 | QVQLVESGGGLVQAGGSLRLSCAASGFTFHDYAMGWYRQAPGKERELVAAITKSGGRTYYADSVKGRFTISRDNAKNTVYLQMNSLKPEDTAVYYCAAASYRSQYDYYYWGQGTQVTVSS | high polyreactivity
6 | QVQLVESGGGLVQAGGSLRLSCAASGFTFHDYVMAWYRQAPGKERELVAAISRSGGSTYYADSVKGRFTISRDNAKHTVYLQMNSLIPEDTAVYYCAAREYTTGGWRYNYWGQGTQVTVSS | high polyreactivity
7 | QVQLVESGGGLVQAGGSLRLSCAASGFTFHNYAMGWYRQAPGKERDFVAAITRNTASTYYADSVKGRFTISRDNAKNTVYLQMNSLKPEDTAVYYCNASRVVYRQAYLYGYDYWGQGTQVTVSS | low polyreactivity
8 | QVQLVESGGGLVQAGGSLRLSCAASGFTFHNYAMGWYRQAPGKEREFVAAITRNTASTYYADSVKGRFTISRDNAKNTVYLQMNSLNPEDTAVYYCAATDKKHRTAYDSWGQGTQVTVSS | low polyreactivity
9 | QVQLVESGGGLVQAGGSLRLSCAASGFTFHVYAMGWSRQAPGKERELVAAISTGDDTTFYADSVKGRLTISRDNAKNTVYLQMNSLKPEDTAVYYCAAAYGTPYGGYDYWGQGTQVTVSS | low polyreactivity
10 | QVQLVESGGGLVQAGGSLRLSCAASGFTFHYYTMGWYRQAPGKEREFVAAISKSGGRTYYADSVKGRFTISRDNAKNTVYLQMNSLKPEDTAVYYCATVGYWRNRHDYWGQGTQVTVSS | high polyreactivity
11 | QVQLVESGGGLVQAGGSLRLSCAASGFTFIFNAMGWYRQAPGKERELVATISWGGGSTYYADSVKGRFTISRDNAKNTVYLQMNSLKPEDTAVYYCNADGYTLWYEYDYWGQGTQVTVSS | low polyreactivity
12 | QVQLVESGGGLVQAGGSLRLSCAASGFTFIGNAMGWYRQAPGKERELVAAISSSGGRTYYADSVKGRFTISRDNAKNTVDLQMNSLKPEDTAVYYCATRQYRGVYYWGQGTQVTVSS | high polyreactivity
13 | QVQLVESGGGLVQAGGSLRLSCAASGFTFIGYAMGWYRQAPGKEREFVAAITSGGSTYYADSVKGRFTISRDNAKNTVYLQMNSLKPEDTAVYYCAARSVYTASYRRVWINPQLDYWGQGTQVTVSS | high polyreactivity
14 | QVQLVESGGGLVQAGGSLRLSCAASGFTFIGYAMGWYRQAPGKERELVAAITISGGSTYYADSVKGRFTISRDNAKNTVYLQMNSLKPEDTAVYYCNVYRLAAFYSLRGYRYDYWGQGTQVTVSS | high polyreactivity
15 | QVQLVESGGGLVQAGGSLRLSCAASGFTFIQYDMGWYRQAPGKERELVAAISSSGGSTYYADSVNGRFTISRDNAKNTFYLQMNSLKPEDTGVYYCAADPWVRLEYDYWGQGTQVTVSS | low polyreactivity
16 | QVQLVESGGGLVQAGGSLRLSCAASGFTFIRNAMGWYRPAPGKERELVAAISTSGGTTYYADSVKGRFTISRDNAKNTVYLQMNSLKPEDTAVYYCNKGIGRSDPDYRYYYWGQGTQVTVSS | high polyreactivity
